Target: recombinant TGFβ1 (R and D Systems) (UniProt P01137 279-390)
Assay: method not stated

Chain of recombinant TGFβ1 (R and D Systems) (P01137 279-390 limits assumed): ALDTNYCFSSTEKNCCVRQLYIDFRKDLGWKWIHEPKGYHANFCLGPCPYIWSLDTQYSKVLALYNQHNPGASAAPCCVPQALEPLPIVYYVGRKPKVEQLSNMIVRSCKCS

- Kd: 1.2 nM
B1: 31G9 scFv (scFv)
chain: QVQLVQSGGGVVQPGRSLRLSCAASGFTFSSYGMHWVRQAPGKGLEWVAVISYDGSIKYYADSVKGRFTISRDNSKNTLYLQMNSLRAEDTAVYYCARTGEYSGYDTSGVELWGQGTTVTVSSGGGGSGGGGSGGGGSDIVMTQSPSTLSASVGDRVTITCRASQGISSWLAWYQQKPGRAPKVLIYKASTLESGVPSRFSGSGSGTDFTLTISSLQPEDFATYYCQQSYSTPWTFGQGTKLEIKR

Source: patent US6342588 (CAMBRIDGE ANTIBODY TECHNOLOGY, dated 2002)
